Where a chain is given by its changes, count along the chain named. Values belong to the binder of their own block, whether it stands above or below them.
Key:
[1] = target: T1, human TNFR1-Fc fusion protein (human, UniProt P19438 29-211); experiment: ELISA on coated huTNFR1-Fc, antibody titrated, signal as Binding [%]
T1 construct: range 29-211; Made in stably transfected HEK293 cells; coated on ELISA plates or immobilised on QCM chips; also called huTNFR1-Fc; human TNFR-Fc; not shown: Fc part from vector pSecTagL1-Fc
T1 sequence (looked up): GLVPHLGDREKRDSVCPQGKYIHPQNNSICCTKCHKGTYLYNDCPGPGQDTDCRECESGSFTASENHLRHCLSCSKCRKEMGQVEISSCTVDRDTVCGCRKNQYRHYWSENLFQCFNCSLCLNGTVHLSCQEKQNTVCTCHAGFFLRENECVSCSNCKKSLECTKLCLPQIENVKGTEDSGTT
Experimental: FIG. 13. […] Increasing concentrations were tested for their binding to huTNFR1-Fc in ELISA (n=3, mean±SD).
(§1) Microtiter plates were coated with 100 µl of the indicated protein (1 µg/ml in PBS, see Table 3.3) and incubated at 4° C. over night. The residual binding sites were blocked with 2% MPBS (skim milk in PBS, 200 µl per well) at room temperature for 2 hours and subsequently washed twice with PBS. 100 µl of the samples diluted in 2% MPBS were incubated at room temperature for 1 hour prior to the last incubation step with 100 µl of the HRP conjugated detection antibodies in 2% MPBS. In the case of competition experiments, both analyzed protein samples were prepared individually (either titrated or diluted to a single concentration) and mixed before they were applied to the plate. Bound protein was detected with 100 µl TMB substrate solution, the HRP-reaction was stopped by the addition of 50 µl 1 M H2SO4 and the absorption at the wavelength of 450 nm was measured using the Infinite microtiter plate reader (TECAN, Maennedorf, Switzerland). Between each incubation step and in advance of the detection, the plates were washed three times with PBST and twice with PBS.

[2] = target: T1, human TNFR1-Fc fusion protein; experiment: ELISA, human TNFR1-Fc
[3] = target: T1, human TNFR1-Fc fusion protein; experiment: QCM, human TNFR1-Fc, moderate receptor density (86 Hz), kon1
Experimental: (§2) Real-time binding dynamics in protein-protein interactions were determined by quartz crystal microbalance measurements (A-100 C-Fast or Cell-200 C-Fast, Attana, Stockholm, Sweden). One of the binding partners (ligand, e.g. TNFR1-Fc) was chemically immobilized on a carboxyl sensor chip according to the manufacturer's protocol at different densities (nearly 200 Hz in the case of saturating conditions to confirm previously published results and 50-100 Hz, in particular at about 50 Hz, to establish conditions of lower receptor density, better resembling the situation on the cellular surface). Binding experiments were performed with samples (analyte) diluted in PBST (PBS, 0.1% Tween 20) at pH 7.4 with a flow rate of 25 µl/min at 37° C. The chip was regenerated with 25 µl 5 mM NaOH or 20 mM glycine, pH 2.0. Every third measurement, an injection of running buffer was measured which was subtracted from the binding curve. Data were collected using the software provided by Attana for the particular device and analyzed by Attaché Office Evaluation software (Attana, Stockholm, Sweden) and TraceDrawe (ridgview instruments, Vange, Sweden).

[4] = target: T1, human TNFR1-Fc fusion protein; experiment: QCM, human TNFR1-Fc, moderate receptor density (86 Hz), KD1
Experimental: as §2

[5] = target: T1, human TNFR1-Fc fusion protein; experiment: QCM, human TNFR1-Fc, moderate receptor density (86 Hz), koff1
Experimental: as §2

[6] = target: T2, mouse TNFR1-Fc fusion protein (mouse, UniProt P25118 30-212); experiment: ELISA on coated receptor-Fc fusion proteins, one antibody concentration (not given on the sheet)
T2 construct: range 30-212; also called moR1; not shown: Fc part from vector pSecTagL1-Fc
T2 sequence (looked up): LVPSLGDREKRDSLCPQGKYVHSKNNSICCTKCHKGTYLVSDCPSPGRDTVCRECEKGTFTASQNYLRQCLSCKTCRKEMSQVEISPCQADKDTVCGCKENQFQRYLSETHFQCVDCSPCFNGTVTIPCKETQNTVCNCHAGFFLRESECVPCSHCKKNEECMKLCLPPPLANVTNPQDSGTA
Experimental: (§3) FIG. 12. Species selectivity of scFv13.7 derivatives. […] Presented are mean and SD of two individual experiments.
as §1

[7] = target: T3, mouse TNFR2-Fc fusion protein (mouse, UniProt P25119 23-258); experiment: as above
T3 construct: range 23-258; not shown: Fc part from vector pSecTagL1-Fc
T3 sequence (looked up): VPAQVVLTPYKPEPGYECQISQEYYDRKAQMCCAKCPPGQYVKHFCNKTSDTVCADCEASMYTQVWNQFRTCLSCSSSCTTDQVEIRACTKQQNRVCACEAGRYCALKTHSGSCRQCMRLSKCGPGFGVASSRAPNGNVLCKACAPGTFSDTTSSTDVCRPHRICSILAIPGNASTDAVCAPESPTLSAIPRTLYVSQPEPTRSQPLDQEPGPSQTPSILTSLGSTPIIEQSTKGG
Experimental: as §3, §1

[8] = target: T4, human TNFR2-Fc fusion protein (human, UniProt P20333 23-257); experiment: as above
T4 construct: whole entry named; also called huTNFR2
T4 sequence (looked up): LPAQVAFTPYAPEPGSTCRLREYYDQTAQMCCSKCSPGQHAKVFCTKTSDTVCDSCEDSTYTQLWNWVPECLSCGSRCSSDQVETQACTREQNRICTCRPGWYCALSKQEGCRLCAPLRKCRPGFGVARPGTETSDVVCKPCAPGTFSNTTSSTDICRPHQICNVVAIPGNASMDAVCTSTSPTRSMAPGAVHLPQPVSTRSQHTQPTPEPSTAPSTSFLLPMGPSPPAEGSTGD
Experimental: as §3, §1

[9] = target: T5, human TNFR1 on cells (HT1080, HeLa, Kym-1) (human, UniProt P19438 30-455); experiment: cell-based or functional assay
T5 sequence (looked up): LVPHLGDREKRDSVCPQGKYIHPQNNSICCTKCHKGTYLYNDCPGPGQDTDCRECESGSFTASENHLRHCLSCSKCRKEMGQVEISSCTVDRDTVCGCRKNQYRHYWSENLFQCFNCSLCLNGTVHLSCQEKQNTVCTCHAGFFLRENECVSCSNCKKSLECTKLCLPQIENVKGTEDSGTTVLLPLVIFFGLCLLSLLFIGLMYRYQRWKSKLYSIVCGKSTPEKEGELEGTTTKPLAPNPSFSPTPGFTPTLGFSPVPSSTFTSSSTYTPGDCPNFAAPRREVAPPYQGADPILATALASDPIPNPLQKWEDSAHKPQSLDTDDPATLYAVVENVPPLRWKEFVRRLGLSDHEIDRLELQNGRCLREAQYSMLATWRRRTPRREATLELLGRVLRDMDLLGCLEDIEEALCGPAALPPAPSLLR

[10] = target: T1, human TNFR1-Fc fusion protein; experiment: QCM, human TNFR1-Fc, high receptor density (184 Hz), OneToOne analysis, kon2
Experimental: as §2, with “curve.” for “curve. Data were collected using the software provided by Attana for the particular device and analyzed by Attaché Office Evaluation software (Attana, Stockholm, Sweden) and TraceDrawe (ridgview instruments, Vange, Sweden).”

[11] = target: T1, human TNFR1-Fc fusion protein; experiment: QCM, human TNFR1-Fc, high receptor density (184 Hz), OneToOne analysis, KD2
Experimental: as §2, with “curve.” for “curve. Data were collected using the software provided by Attana for the particular device and analyzed by Attaché Office Evaluation software (Attana, Stockholm, Sweden) and TraceDrawe (ridgview instruments, Vange, Sweden).”

[12] = target: T1, human TNFR1-Fc fusion protein; experiment: QCM, human TNFR1-Fc, high receptor density (184 Hz), OneToOne analysis, koff2
Experimental: as §2, with “curve.” for “curve. Data were collected using the software provided by Attana for the particular device and analyzed by Attaché Office Evaluation software (Attana, Stockholm, Sweden) and TraceDrawe (ridgview instruments, Vange, Sweden).”

[13] = target: T1, human TNFR1-Fc fusion protein; experiment: QCM
[14] = target: T5, human TNFR1 on cells (HT1080, HeLa, …); experiment: cell-based or functional assay; remark: listed apart in the source
[15] = target: T1, human TNFR1-Fc fusion protein; experiment: ELISA on coated human TNFR1-Fc, reference curve next to Fv13.7-Fckih0DS
Experimental: as §1

[16] = target: T1, human TNFR1-Fc fusion protein; experiment: QCM, moderate receptor density (86 Hz)
Experimental: as §2

[17] = target: T1, human TNFR1-Fc fusion protein; experiment: ELISA on coated human TNFR1-Fc, reference curve next to Fab13.7PEG
Experimental: as §1

EC50 (read off the curve) [1]: ~10 nM
fold weaker binding (higher EC50) compared with Fab13.7 [2]: 8.7 fold
kon [3]: 501000 M⁻¹ s⁻¹
Kd [4]: 30 nM
koff [5]: 0.015 s⁻¹
binding result [6]: no binding
binding result [7]: no binding
binding result [8]: no binding
IC50, IL-6 (nM); inhibition of the response of HeLa cells to 0.1 nM TNF [9]: 145 nM
IC50, IL-8 (nM); inhibition of the response of HT1080 cells to 0.1 nM TNF [9]: 151 nM
IL-6 release (pg/ml), HeLa cells [9]: 179 pg/mL
IL-8 release (pg/ml), HT1080 cells [9]: 128 pg/mL
B1: FabATROSAB (Fab, V domains shown)
VH: QVQLVQSGAEVKKPGSSVKVSCKASGYTFTDFYINWVRQAPGQGLEWIGEIYPYSGHAYYNEKFKARVTITADKSTSTAYMELSSLRSEDTAVYYCARWDFLDYWGQGTTVTVSS
VL: DIVMTQSPLSLPVTPGEPASISCRSSQSLLHSNGNTYLHWYLQKPGQSPQLLIYTVSNRFSGVPDRFSGSGSGTDFTLKISRVEAEDVGVYYCSQSTHVPYTFGGGTKVEIKR
notes: Fab of ATROSAB; also called Fab fragment of ATROSAB; ATROSAB Fab
IC50, Cytotox (nM); inhibition of Kym-1 cell death by 0.01 nM TNF [9]: 37 nM

kon [10]: 535000 M⁻¹ s⁻¹
EC50 [2]: 0.76 nM
Kd [11]: 0.11 nM
IL-6 release (pg/ml), HeLa cells [9]: 1450 pg/mL
IL-8 release (pg/ml), HT1080 cells [9]: 4230 pg/mL
koff [12]: 5.92e-05 s⁻¹
fold improvement of KD compared with ATROSAB (bivalent binding) [13]: 3.5 fold
B2: IgG13.7 (antibody, V domains shown)
VH: B1 VH with Q1H, Y52V, Y54S, S55Q, H57E, Y59K, E62D
VL: DVQMTQSPSSLSASVGDRVTITCRSSQSLLHSNGNTYLHWYQQKPGKAPKLLIYTVSNRFSGVPSRFSGSGSGTDFTLTISSLQPEDFATYYCSQSTHVPYTFGGGTKVEIK
notes: Made transiently in HEK293T cells; also called IgG-FRK13.7

IC50 (read off the curve), inhibition of the interleukin release induced by 0.1 nM TNF (axis: IL-6 release [%]) [14]: ~20 nM
EC50 [2]: 1.4 nM
EC50 (read off the curve) [15]: ~0.6 nM
kon [3]: 470000 M⁻¹ s⁻¹
fold stronger affinity than FabATR [16]: 19 fold
EC50 (read off the curve) [17]: ~2 nM
Kd [4]: 1.6 nM
koff [5]: 0.000732 s⁻¹
IC50, IL-6 (nM); inhibition of the response of HeLa cells to 0.1 nM TNF [9]: 31 nM
IC50, IL-8 (nM); inhibition of the response of HT1080 cells to 0.1 nM TNF [9]: 19 nM
IL-6 release (pg/ml), HeLa cells [9]: 101 pg/mL
IL-8 release (pg/ml), HT1080 cells [9]: 138 pg/mL
B3: Fab13.7 (Fab, V domains shown)
VH: B1 VH with Q1H, Y52V, Y54S, S55Q, H57E, Y59K, E62D
VL: DVQMTQSPSSLSASVGDRVTITCRSSQSLLHSNGNTYLHWYQQKPGKAPKLLIYTVSNRFSGVPSRFSGSGSGTDFTLTISSLQPEDFATYYCSQSTHVPYTFGGGTKVEIKR
notes: also called Fab-FRK13.7; Fab3.7
IC50, Cytotox (nM); inhibition of Kym-1 cell death by 0.01 nM TNF [9]: 4.7 nM
